Target: T1, gelatinase A (Homo sapiens, UniProt P08253)
T1 sequence (P08253 110-660): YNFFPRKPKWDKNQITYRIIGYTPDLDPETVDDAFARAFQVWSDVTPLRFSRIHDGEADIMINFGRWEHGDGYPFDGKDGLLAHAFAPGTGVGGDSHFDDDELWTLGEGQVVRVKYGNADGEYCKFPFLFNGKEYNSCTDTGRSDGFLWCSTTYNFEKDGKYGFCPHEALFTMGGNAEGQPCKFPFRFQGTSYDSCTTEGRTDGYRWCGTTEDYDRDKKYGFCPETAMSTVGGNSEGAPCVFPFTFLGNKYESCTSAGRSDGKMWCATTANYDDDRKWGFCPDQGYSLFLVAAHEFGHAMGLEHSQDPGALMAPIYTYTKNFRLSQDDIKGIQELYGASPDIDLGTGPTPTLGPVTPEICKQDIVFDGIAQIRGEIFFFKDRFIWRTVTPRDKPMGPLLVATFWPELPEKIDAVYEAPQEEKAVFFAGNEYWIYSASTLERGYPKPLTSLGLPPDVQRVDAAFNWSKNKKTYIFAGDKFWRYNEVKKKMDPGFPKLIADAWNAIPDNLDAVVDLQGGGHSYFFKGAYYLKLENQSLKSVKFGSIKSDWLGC
Test: Inhibition with type II collagen, FlSub3 cleavage
Assay type: biochemical
Details: for Improvement In Selectivity (Gel-A v Col-3): 44 ug/ml Type II Collagen vs no Type II Collagen, FlSb3; for Average Percent Inhibition from 1.1 to 6.6 Hours / Average Percent Inhibition: GELA(.025 nM)

Improvement In Selectivity (Gel-A v Col-3): 80 fold
Improvement In Selectivity (Gel-A v Col-3) (listed as collagen): approximately 80 fold
Average Percent Inhibition from 1.1 to 6.6 Hours (Type II Collagen 0.18 ug/ml): 2%
Average Percent Inhibition from 1.1 to 6.6 Hours (Type II Collagen 0.54 ug/ml): 6%
Average Percent Inhibition from 1.1 to 6.6 Hours (Type II Collagen 1.63 ug/ml): −52%
Average Percent Inhibition from 1.1 to 6.6 Hours (Type II Collagen 4.89 ug/ml): 32%
Average Percent Inhibition from 1.1 to 6.6 Hours (Type II Collagen 14.67 ug/ml): 56%
Average Percent Inhibition from 1.1 to 6.6 Hours (Type II Collagen 44.00 ug/ml): 83%
Average Percent Inhibition (TypeIICOL(1.6 ug/ul), FISb3, hour 0.10 to 1.10): −27%
Average Percent Inhibition (TypeIICOL(1.6 ug/ul), FISb3, hour 1.10 to 2.10): 4%
Average Percent Inhibition (TypeIICOL(1.6 ug/ul), FISb3, hour 1.10 to 6.60): −52%
Average Percent Inhibition (TypeIICOL(1.6 ug/ul), FISb3, hour 2.10 to 3.10): −11%
Average Percent Inhibition (TypeIICOL(1.6 ug/ul), FISb3, hour 3.10 to 4.10): −37%
Average Percent Inhibition (TypeIICOL(1.6 ug/ul), FISb3, hour 4.10 to 5.10): −68%
Average Percent Inhibition (TypeIICOL(1.6 ug/ul), FISb3, hour 5.10 to 6.10): −104%
Average Percent Inhibition (TypeIICOL(4.9 ug/ul), FISb3, hour 0.10 to 1.10): 37%
Average Percent Inhibition (TypeIICOL(4.9 ug/ul), FISb3, hour 1.10 to 2.10): 43%
Average Percent Inhibition (TypeIICOL(4.9 ug/ul), FISb3, hour 1.10 to 6.60): 32%
Average Percent Inhibition (TypeIICOL(4.9 ug/ul), FISb3, hour 2.10 to 3.10): 46%
Average Percent Inhibition (TypeIICOL(4.9 ug/ul), FISb3, hour 3.10 to 4.10): 37%
Average Percent Inhibition (TypeIICOL(4.9 ug/ul), FISb3, hour 4.10 to 5.10): 27%
Average Percent Inhibition (TypeIICOL(4.9 ug/ul), FISb3, hour 5.10 to 6.10): 19%
Average Percent Inhibition (TypeIICOL(15 ug/ul), FISb3, hour 0.10 to 1.10): 56%
Average Percent Inhibition (TypeIICOL(15 ug/ul), FISb3, hour 1.10 to 2.10): 64%
Average Percent Inhibition (TypeIICOL(15 ug/ul), FISb3, hour 1.10 to 6.60): 56%
Average Percent Inhibition (TypeIICOL(15 ug/ul), FISb3, hour 2.10 to 3.10): 70%
Average Percent Inhibition (TypeIICOL(15 ug/ul), FISb3, hour 3.10 to 4.10): 64%
Average Percent Inhibition (TypeIICOL(15 ug/ul), FISb3, hour 4.10 to 5.10): 53%
Average Percent Inhibition (TypeIICOL(15 ug/ul), FISb3, hour 5.10 to 6.10): 41%
Average Percent Inhibition (TypeIICOL(44 ug/ul), FISb3, hour 0.10 to 1.10): 58%
Average Percent Inhibition (TypeIICOL(44 ug/ul), FISb3, hour 1.10 to 2.10): 78%
Average Percent Inhibition (TypeIICOL(44 ug/ul), FISb3, hour 1.10 to 6.60): 83%
Average Percent Inhibition (TypeIICOL(44 ug/ul), FISb3, hour 2.10 to 3.10): 86%
Average Percent Inhibition (TypeIICOL(44 ug/ul), FISb3, hour 3.10 to 4.10): 87%
Average Percent Inhibition (TypeIICOL(44 ug/ul), FISb3, hour 4.10 to 5.10): 85%
Average Percent Inhibition (TypeIICOL(44 ug/ul), FISb3, hour 5.10 to 6.10): 82%
Average Percent Inhibition (TypeIICOL(.18 ug/ul), FISb3, hour 0.10 to 1.10): 3%
Average Percent Inhibition (TypeIICOL(.18 ug/ul), FISb3, hour 1.10 to 2.10): 9%
Average Percent Inhibition (TypeIICOL(.18 ug/ul), FISb3, hour 1.10 to 6.60): 2%
Average Percent Inhibition (TypeIICOL(.18 ug/ul), FISb3, hour 2.10 to 3.10): 7%
Average Percent Inhibition (TypeIICOL(.18 ug/ul), FISb3, hour 3.10 to 4.10): 3%
Average Percent Inhibition (TypeIICOL(.18 ug/ul), FISb3, hour 4.10 to 5.10): 0%
Average Percent Inhibition (TypeIICOL(.18 ug/ul), FISb3, hour 5.10 to 6.10): −3%
Average Percent Inhibition (TypeIICOL(.55 ug/ul), FISb3, hour 0.10 to 1.10): 2%
Average Percent Inhibition (TypeIICOL(.55 ug/ul), FISb3, hour 1.10 to 2.10): 11%
Average Percent Inhibition (TypeIICOL(.55 ug/ul), FISb3, hour 1.10 to 6.60): 6%
Average Percent Inhibition (TypeIICOL(.55 ug/ul), FISb3, hour 2.10 to 3.10): 12%
Average Percent Inhibition (TypeIICOL(.55 ug/ul), FISb3, hour 3.10 to 4.10): 8%
Average Percent Inhibition (TypeIICOL(.55 ug/ul), FISb3, hour 4.10 to 5.10): 4%
Average Percent Inhibition (TypeIICOL(.55 ug/ul), FISb3, hour 5.10 to 6.10): −1%
inhibition of gelatinase A by type II collagen (highest concentration (44 ug/ml), six hour time course, FlSub3): Almost complete inhibition
Substance: Type II Collagen: bovine type II collagen, full length MMP substrate used as inhibitor of gelatinases

From patent US7432061B2, “Assays for measuring matrix metalloproteinase activities” (BioZyme, Inc., priority 2002, dated 2008)
